This note sets out measurements from patent publication US20210155689A1 (SHANGHAI PHARMAEXPLORER, published 2021).

“And” between values parts separate entries of the source, which are not always exact repeats. Equal entries are not always repeated.

The target of test [1] is human LAG-3 protein with hFc tag (hLAG-3-hFc protein) (human) (UniProt P18627). Kind of test: ELISA, hLAG-3-hFc coated 1 ug/ml; 1.2000 ug/mL. (In general: In an ELISA, binding on a coated surface is turned into a signal by an enzyme label.)
The target is the same in test [2]. Kind of test: ELISA, hLAG-3-hFc coated 1 ug/ml; 0.0480 ug/mL.
For test [3] the target is unchanged. Kind of test: ELISA, hLAG-3-hFc coated 1 ug/ml; 0.2400 ug/mL.
The target is the same in test [4]. As to the kind of experiment: ELISA, hLAG-3-hFc coated 1 ug/ml; 0.0096 ug/mL.
Test [5] has the same target. Kind of test: ELISA, hLAG-3-hFc coated 1 ug/ml; 30.0000 ug/mL.
Test [6] has the same target. Kind of test: ELISA, hLAG-3-hFc coated 1 ug/ml; 6.0000 ug/mL.
Test [7] shares this target. As to the kind of experiment: ELISA, hLAG-3-hFc coated 1 ug/ml; 0.0000 ug/mL.
The target is the same in test [8]. As to the kind of experiment: ELISA, hLAG-3-hFc coated 1 ug/ml; 0.0019 ug/mL.
Test [9] concerns the target MHC II on Raji cells. As to the kind of experiment: FACS, Raji cells; 200 ug/ml.
Test [10] addresses MHC II on Raji cells. As to the kind of experiment: FACS, Raji cells; 22.2 ug/ml.
In test [11] the target is MHC II on Raji cells. As to the kind of experiment: FACS, Raji cells; 0.1 ug/ml. Background: Flow cytometry measures light scatter and fluorescence of single cells or particles in a stream.
Test [12] has as its target MHC II on Raji cells. As to the kind of experiment: FACS, Raji cells; 0.3 ug/ml.
Test [13] has as its target MHC II on Raji cells. Kind of test: FACS, Raji cells; 7.4 ug/ml.
For test [14], the target named is MHC II on Raji cells. Kind of test: FACS, Raji cells; 0 ug/ml.
The target in test [15] is MHC II on Raji cells. Kind of test: FACS, Raji cells; 66.7 ug/ml.
The target in test [16] is MHC II on Raji cells. As to the kind of experiment: FACS, Raji cells; 0.8 ug/ml.
The target in test [17] is MHC II on Raji cells. As to the kind of experiment: FACS, Raji cells; 2.5 ug/ml.
Test [18] has as its target human LAG-3 protein with hFc tag (hLAG-3-hFc protein) (human) (UniProt P18627). As to the kind of experiment: ELISA, hLAG-3-hFc coated; 0.0001 nM.
For test [19], the target named is mouse LAG-3 protein with hFc tag (mLAG-3-hFc protein) (mouse; human) (UniProt Q61790). Kind of test: ELISA, mLAG-3-hFc coated; 0.0067 nM.
Test [20] deals with human LAG-3 protein with hFc tag (hLAG-3-hFc protein) (human) (UniProt P18627). Kind of test: ELISA, hLAG-3-hFc coated; 0.0067 nM.
Test [21] shares this target. Kind of test: ELISA, hLAG-3-hFc coated; 0.0667 nM.
Test [22] has as its target human LAG-3-hFc protein (human) (UniProt P18627). Kind of test: competition FACS: inhibition of LAG-3-hFc binding to MHC II on Raji cells, antibody 0.823 nM.
The target is the same in test [23]. Kind of test: competition FACS: inhibition of LAG-3-hFc binding to MHC II on Raji cells, antibody 66.667 nM.
Test [24] has the same target. Kind of test: competition FACS: inhibition of LAG-3-hFc binding to MHC II on Raji cells, antibody 22.222 nM.
Test [25] has as its target human LAG-3 protein (full length, on cells) (human) (UniProt P18627). As to the kind of experiment: FACS on HEK293-hLAG-3 cells, antibody 8 nM.
Test [26] has as its target mouse LAG-3 protein with hFc tag (mLAG-3-hFc protein) (mouse; human) (UniProt Q61790). Kind of test: ELISA, mLAG-3-hFc coated; 6.6667 nM.
The target of test [27] is hFc tagged monkey LAG-3 protein (cLAG-3-hFc protein) (monkey; human). Kind of test: ELISA, cLAG-3-hFc coated; 0.0000 nM.
For test [28] the target is unchanged. Kind of test: ELISA, cLAG-3-hFc coated; 0.0067 nM.
The target of test [29] is human LAG-3 protein with hFc tag (hLAG-3-hFc protein) (human) (UniProt P18627). As to the kind of experiment: ELISA, hLAG-3-hFc coated; 0.6667 nM.
Test [30] concerns the target human LAG-3-hFc protein (human) (UniProt P18627). Kind of test: competition FACS: inhibition of LAG-3-hFc binding to MHC II on Raji cells, antibody 2.469 nM.
Test [31] has the same target. Kind of test: competition FACS: inhibition of LAG-3-hFc binding to MHC II on Raji cells, antibody 0.274 nM.
The target of test [32] is hFc tagged monkey LAG-3 protein (cLAG-3-hFc protein) (monkey; human). As to the kind of experiment: ELISA, cLAG-3-hFc coated; 0.0001 nM.
Test [33] deals with human LAG-3 protein (full length, on cells) (human) (UniProt P18627). As to the kind of experiment: FACS on HEK293-hLAG-3 cells, antibody 0.064 nM.
For test [34] the target is unchanged. Kind of test: cell-based or functional assay.
Test [35] has as its target human LAG-3 protein with hFc tag (hLAG-3-hFc protein) (human) (UniProt P18627). Kind of test: ELISA, hLAG-3-hFc coated; 66.6670 nM.
Test [36] deals with human LAG-3 protein (full length, on cells) (human) (UniProt P18627). Kind of test: FACS on HEK293-hLAG-3 cells, antibody 1.6 nM.
In test [37] the target is human LAG-3-hFc protein (human) (UniProt P18627). Kind of test: competition FACS: inhibition of LAG-3-hFc binding to MHC II on Raji cells, antibody 200.000 nM.
The target is the same in test [38]. As to the kind of experiment: competition FACS: inhibition of LAG-3-hFc binding to MHC II on Raji cells, antibody 7.407 nM.
The target is the same in test [39]. As to the kind of experiment: competition FACS: inhibition of LAG-3-hFc binding to MHC II on Raji cells, antibody 0.000 nM.
Test [40] addresses mouse LAG-3 protein with hFc tag (mLAG-3-hFc protein) (mouse; human) (UniProt Q61790). Kind of test: ELISA, mLAG-3-hFc coated; 0.0667 nM.
Test [41] deals with hFc tagged monkey LAG-3 protein (cLAG-3-hFc protein) (monkey; human). Kind of test: ELISA, cLAG-3-hFc coated; 6.6667 nM.
For test [42] the target is unchanged. Kind of test: ELISA, cLAG-3-hFc coated; 0.6667 nM.
For test [43], the target named is mouse LAG-3 protein with hFc tag (mLAG-3-hFc protein) (mouse; human) (UniProt Q61790). As to the kind of experiment: ELISA, mLAG-3-hFc coated; 0.0007 nM.
Test [44] concerns the target human LAG-3 protein with hFc tag (hLAG-3-hFc protein) (human) (UniProt P18627). As to the kind of experiment: ELISA, hLAG-3-hFc coated; 0.0007 nM.
In test [45] the target is mouse LAG-3 protein with hFc tag (mLAG-3-hFc protein) (mouse; human) (UniProt Q61790). As to the kind of experiment: ELISA, mLAG-3-hFc coated; 0.6667 nM.
The target in test [46] is human LAG-3 protein (full length, on cells) (human) (UniProt P18627). As to the kind of experiment: FACS on HEK293-hLAG-3 cells, antibody 0.013 nM.
The target is the same in test [47]. As to the kind of experiment: FACS on HEK293-hLAG-3 cells, antibody 0 nM (background).
Test [48] addresses hFc tagged monkey LAG-3 protein (cLAG-3-hFc protein) (monkey; human). As to the kind of experiment: ELISA, cLAG-3-hFc coated; 0.0667 nM.
Test [49] has the same target. Kind of test: ELISA, cLAG-3-hFc coated; 0.0007 nM.
The target in test [50] is human LAG-3 protein with hFc tag (hLAG-3-hFc protein) (human) (UniProt P18627). As to the kind of experiment: ELISA, hLAG-3-hFc coated; 0.0000 nM.
Test [51] concerns the target mouse LAG-3 protein with hFc tag (mLAG-3-hFc protein) (mouse; human) (UniProt Q61790). Kind of test: ELISA, mLAG-3-hFc coated; 0.0001 nM.
The target in test [52] is hFc tagged monkey LAG-3 protein (cLAG-3-hFc protein) (monkey; human). Kind of test: ELISA, cLAG-3-hFc coated; 66.6670 nM.
Test [53] has as its target mouse LAG-3 protein with hFc tag (mLAG-3-hFc protein) (mouse; human) (UniProt Q61790). As to the kind of experiment: ELISA, mLAG-3-hFc coated; 66.6670 nM.
Test [54] addresses human LAG-3 protein (full length, on cells) (human) (UniProt P18627). Kind of test: FACS on HEK293-hLAG-3 cells, antibody 0.32 nM.
Test [55] has as its target human LAG-3 protein with hFc tag (hLAG-3-hFc protein) (human) (UniProt P18627). Kind of test: ELISA, hLAG-3-hFc coated; 6.6667 nM.

Sequence of mouse LAG-3 protein with hFc tag (mLAG-3-hFc protein) (mouse; human) (Q61790 24-442): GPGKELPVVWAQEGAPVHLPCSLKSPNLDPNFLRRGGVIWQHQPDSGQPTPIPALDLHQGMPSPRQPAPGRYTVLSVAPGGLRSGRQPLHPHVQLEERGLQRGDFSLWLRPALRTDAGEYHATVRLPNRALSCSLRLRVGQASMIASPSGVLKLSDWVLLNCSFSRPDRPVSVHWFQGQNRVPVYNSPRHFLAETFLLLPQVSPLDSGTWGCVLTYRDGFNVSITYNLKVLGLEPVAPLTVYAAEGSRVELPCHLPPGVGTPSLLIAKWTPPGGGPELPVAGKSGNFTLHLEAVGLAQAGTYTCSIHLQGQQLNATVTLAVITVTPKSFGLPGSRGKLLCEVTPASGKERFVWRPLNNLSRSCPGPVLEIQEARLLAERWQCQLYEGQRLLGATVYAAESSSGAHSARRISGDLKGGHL
Sequence of hFc tagged monkey LAG-3 protein (cLAG-3-hFc protein) (monkey; human) (chain, as listed by the source): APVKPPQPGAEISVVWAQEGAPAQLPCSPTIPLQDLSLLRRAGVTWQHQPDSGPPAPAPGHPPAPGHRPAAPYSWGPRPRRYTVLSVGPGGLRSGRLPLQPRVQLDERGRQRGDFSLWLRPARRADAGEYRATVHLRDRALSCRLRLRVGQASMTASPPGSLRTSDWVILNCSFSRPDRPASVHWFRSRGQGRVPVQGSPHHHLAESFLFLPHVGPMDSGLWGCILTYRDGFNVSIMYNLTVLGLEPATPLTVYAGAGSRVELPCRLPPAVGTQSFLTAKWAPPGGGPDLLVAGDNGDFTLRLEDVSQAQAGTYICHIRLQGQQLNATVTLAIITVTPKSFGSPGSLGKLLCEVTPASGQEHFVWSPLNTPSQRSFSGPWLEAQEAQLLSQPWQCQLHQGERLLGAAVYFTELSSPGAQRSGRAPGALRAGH
Sequence of human LAG-3 protein with hFc tag (hLAG-3-hFc protein) (human) (P18627 23-450): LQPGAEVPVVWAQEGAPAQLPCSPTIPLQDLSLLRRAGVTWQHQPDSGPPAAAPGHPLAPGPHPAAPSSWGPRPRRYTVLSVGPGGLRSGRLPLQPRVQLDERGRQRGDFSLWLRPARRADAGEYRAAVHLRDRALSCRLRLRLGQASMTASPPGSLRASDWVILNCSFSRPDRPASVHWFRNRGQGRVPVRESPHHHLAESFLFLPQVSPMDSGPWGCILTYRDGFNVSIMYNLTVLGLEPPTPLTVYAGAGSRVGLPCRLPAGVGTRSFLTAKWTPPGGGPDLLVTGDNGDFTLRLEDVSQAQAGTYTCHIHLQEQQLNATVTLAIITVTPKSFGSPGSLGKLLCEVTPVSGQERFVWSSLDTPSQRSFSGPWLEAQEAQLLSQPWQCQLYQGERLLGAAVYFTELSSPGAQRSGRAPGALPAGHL
Sequence of human LAG-3-hFc protein (human) (P18627 23-450): as above
Sequence of human LAG-3 protein (full length, on cells) (human) (P18627 23-525 limits assumed): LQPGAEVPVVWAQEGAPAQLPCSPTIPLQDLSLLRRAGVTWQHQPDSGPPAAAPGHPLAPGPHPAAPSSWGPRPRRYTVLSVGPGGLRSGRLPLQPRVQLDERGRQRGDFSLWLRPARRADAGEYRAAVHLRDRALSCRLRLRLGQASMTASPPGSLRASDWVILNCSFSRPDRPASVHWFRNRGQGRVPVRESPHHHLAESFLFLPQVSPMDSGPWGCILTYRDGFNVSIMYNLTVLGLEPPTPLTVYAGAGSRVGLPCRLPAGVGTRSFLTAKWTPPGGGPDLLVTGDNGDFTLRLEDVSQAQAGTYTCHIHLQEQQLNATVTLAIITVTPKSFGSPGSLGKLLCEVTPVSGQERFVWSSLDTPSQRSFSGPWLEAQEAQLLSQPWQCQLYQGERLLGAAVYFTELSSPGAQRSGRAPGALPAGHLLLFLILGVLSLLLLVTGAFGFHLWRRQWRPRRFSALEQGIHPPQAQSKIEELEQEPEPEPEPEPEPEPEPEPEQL

Consider Negative protein (control of Table 2), for which the OD450 in [1] was 0.07 OD450 and 0.06 OD450; in test [2], 0.06 OD450; in test [3], 0.07 OD450 and 0.06 OD450; in test [4], 0.06 OD450; in test [5] it was 0.16 OD450 and 0.14 OD450; in test [6], 0.09 OD450. Besides, the OD450 in test [7] and in [8] was 0.06 OD450 in each case.
For hFc (control protein of Table 1), the Mean fluorescence value in [9] turned out to be 21 MFI; in [10], 20 MFI; in test [11] it was 13 MFI; in test [12], 11 MFI; in test [13] it was 18 MFI; in test [14], 13 MFI. Besides, the Mean fluorescence value in test [15] was found to be 28 MFI; in test [16] it was 12 MFI; in [17] it was 14 MFI.
On to hIgG control (human IgG) (antibody), for which the OD450 is 0.1 OD450 in test [18]; 0.08 OD450 in test [19]; 0.13 OD450 in test [20]; 0.11 OD450 in [21]; 0.18 OD450 in test [26]; 0.13 OD450 in test [27]. In addition, the OD450 in test [28] was 0.19 OD450; in [29] it was 0.14 OD450; in [32], 0.14 OD450; in [35], 1.17 OD450; in test [40], 0.08 OD450; in [41] it was 0.29 OD450. Further, the OD450 in test [42] stood at 0.18 OD450; in test [43] it was 0.07 OD450; in test [44], 0.1 OD450; in test [45] it was 0.09 OD450; in test [48], 0.14 OD450; in test [49], 0.13 OD450. The OD450 in test [50] is 0.11 OD450; in [51], 0.08 OD450; in test [52], 1.16 OD450; in test [53] it was 0.56 OD450; in test [55], 0.29 OD450. The Inhibition rate (%) in test [22] was 2%; in test [23], 4%; in test [24], 0%; in test [30], 3%; in [31] it was 0%; in test [37] it was 1%. The values for the Inhibition rate (%) in test [38] and in [39] were 1% and 0%, respectively. Also, the Mean fluorescence intensity in test [25], in test [33], in test [36], in [46], in test [47] and in test [54] was 3 MFI each time. In addition, the IL-2 production, pg/ml; antibody 0.0032 ug/ml, N = 1 in test [34] worked out at 144 pg/mL. The substance further registered an IL-2 production, pg/ml; antibody 0.0032 ug/ml, N = 2 in test [34] of 123 pg/mL. The substance further returned an IL-2 production, pg/ml; antibody 0.016 ug/ml, N = 1 in test [34] of 141 pg/mL. In test [34], this substance gave an IL-2 production, pg/ml; antibody 0.016 ug/ml, N = 2 of 143 pg/mL. Further, the IL-2 production, pg/ml; antibody 0.08 ug/ml, N = 1 in test [34] was 157 pg/mL. Also, in [34], the IL-2 production, pg/ml; antibody 0.08 ug/ml, N = 2 was 145 pg/mL. The IL-2 production, pg/ml; antibody 0.4 ug/ml, N = 1 in test [34] worked out at 159 pg/mL. The substance also had an IL-2 production, pg/ml; antibody 0.4 ug/ml, N = 2 in test [34] of 179 pg/mL. Moreover, the IL-2 production, pg/ml; antibody 2 ug/ml, N = 1 in [34] amounted to 164 pg/mL. In test [34], this substance had an IL-2 production, pg/ml; antibody 2 ug/ml, N = 2 of 162 pg/mL. Also, the IL-2 production, pg/ml; antibody 10 ug/ml, N = 1 in test [34] was determined as 142 pg/mL. The same substance yielded an IL-2 production, pg/ml; antibody 10 ug/ml, N = 2 in test [34] of 168 pg/mL.
